The values that follow come from patent publication EP4324846A1 (Eberhard Karls Universität Tübingen, Medizinische Fakultät, dated 2024).

Test [1] deals with T1, d3-wt (human EGFR domain 3) (human, UniProt P00533 337-504, limits assumed).
T1 construct: Expressed in E. coli from pET-28a(+) and purified on a HisTrap column; Monomeric fraction used; also called wild type d3; wild-type d3 domain
The test is described as follows: SPR (Biacore X100), HB-EGF immobilized on CM5, multi-cycle kinetics.

Test [2] concerns the target T2, EGF (Peprotech AF-100-15) (UniProt P01133 971-1023).
T2 construct: Immobilized on a CM5 chip by amine coupling; Also added at 400 pM in the A431 proliferation assay; also called epidermal growth factor
Description: SPR (Biacore X100), EGF immobilized on CM5, multi-cycle kinetics. Background: Surface plasmon resonance follows binding to a sensor surface in real time, without labels.

The target in test [3] is T2, EGF (Peprotech AF-100-15). The test is described as follows: SPR, EGF immobilized; reference d3-wt.

T2 sequence (P01133 971-1023 limits assumed): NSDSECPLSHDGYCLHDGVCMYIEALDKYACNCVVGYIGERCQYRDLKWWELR

B1: HB-EGF (R&D Systems 259-HE-050/CF) (ligand, UniProt Q99075 63-148, looked up)
chain: DLQEADLDLLRVTLSSKPQALATPNKEEHGKRKKKGKGLGKKRDPCLRKYKDFCIHGECKYVKELRAPSCICHPGYHGERCHGLSL
notes: Immobilized on a CM5 chip by amine coupling
For B1, the Kd (in general, a measure of binding affinity in units of concentration) in test [1] stood at 263 nM.

B2: dd3-1 (designed binder)
chain: ANGIGIGEFKDSLSIWAWNIKHFKNARSISGDLHILPVAFRGDSFTHTPPLEPKELEILKTVKEITGYLLVQAWPENRTDLHAFENLEIIRGRTKQHGQFSLAVVSLNVTSLGLRSLKEISDGDVIMSGNKNLKMANEMNWKKMFGTSGQKTKIISNRGE
notes: Expressed in E. coli from pET-28a(+) and purified on a HisTrap column; also called design
On to B2, for which the Kd in test [2] worked out at 10 nM. In addition, the “fold tighter binding than d3-wt” value in test [3] came to 5 fold.
